This is an account of results in PMC9799976.

For experiment [1], the target named is full-length human dynein complex (heavy chain with SNAP-tag, IC, LIC, Tctex, LC8, Robl) (human) (UniProt Q14204). Kind of experiment: single-molecule TIRF microscopy; 10 nM JIP3 (Halo-JF646) on surface-attached MTs, without or with 1 nM dynein; dwell time of JIP3 on MT-bound dynein.
Experiment [2] has the same target.
In experiment [3] the target is tail-truncated single-headed human dynein (amino acids 1320-4646 of DYNC1H1), N-terminal GFP (human) (UniProt Q14204).
Sequence of tail-truncated single-headed human dynein (amino acids 1320-4646 of DYNC1H1), N-terminal GFP (human) (Q14204 1320-4646): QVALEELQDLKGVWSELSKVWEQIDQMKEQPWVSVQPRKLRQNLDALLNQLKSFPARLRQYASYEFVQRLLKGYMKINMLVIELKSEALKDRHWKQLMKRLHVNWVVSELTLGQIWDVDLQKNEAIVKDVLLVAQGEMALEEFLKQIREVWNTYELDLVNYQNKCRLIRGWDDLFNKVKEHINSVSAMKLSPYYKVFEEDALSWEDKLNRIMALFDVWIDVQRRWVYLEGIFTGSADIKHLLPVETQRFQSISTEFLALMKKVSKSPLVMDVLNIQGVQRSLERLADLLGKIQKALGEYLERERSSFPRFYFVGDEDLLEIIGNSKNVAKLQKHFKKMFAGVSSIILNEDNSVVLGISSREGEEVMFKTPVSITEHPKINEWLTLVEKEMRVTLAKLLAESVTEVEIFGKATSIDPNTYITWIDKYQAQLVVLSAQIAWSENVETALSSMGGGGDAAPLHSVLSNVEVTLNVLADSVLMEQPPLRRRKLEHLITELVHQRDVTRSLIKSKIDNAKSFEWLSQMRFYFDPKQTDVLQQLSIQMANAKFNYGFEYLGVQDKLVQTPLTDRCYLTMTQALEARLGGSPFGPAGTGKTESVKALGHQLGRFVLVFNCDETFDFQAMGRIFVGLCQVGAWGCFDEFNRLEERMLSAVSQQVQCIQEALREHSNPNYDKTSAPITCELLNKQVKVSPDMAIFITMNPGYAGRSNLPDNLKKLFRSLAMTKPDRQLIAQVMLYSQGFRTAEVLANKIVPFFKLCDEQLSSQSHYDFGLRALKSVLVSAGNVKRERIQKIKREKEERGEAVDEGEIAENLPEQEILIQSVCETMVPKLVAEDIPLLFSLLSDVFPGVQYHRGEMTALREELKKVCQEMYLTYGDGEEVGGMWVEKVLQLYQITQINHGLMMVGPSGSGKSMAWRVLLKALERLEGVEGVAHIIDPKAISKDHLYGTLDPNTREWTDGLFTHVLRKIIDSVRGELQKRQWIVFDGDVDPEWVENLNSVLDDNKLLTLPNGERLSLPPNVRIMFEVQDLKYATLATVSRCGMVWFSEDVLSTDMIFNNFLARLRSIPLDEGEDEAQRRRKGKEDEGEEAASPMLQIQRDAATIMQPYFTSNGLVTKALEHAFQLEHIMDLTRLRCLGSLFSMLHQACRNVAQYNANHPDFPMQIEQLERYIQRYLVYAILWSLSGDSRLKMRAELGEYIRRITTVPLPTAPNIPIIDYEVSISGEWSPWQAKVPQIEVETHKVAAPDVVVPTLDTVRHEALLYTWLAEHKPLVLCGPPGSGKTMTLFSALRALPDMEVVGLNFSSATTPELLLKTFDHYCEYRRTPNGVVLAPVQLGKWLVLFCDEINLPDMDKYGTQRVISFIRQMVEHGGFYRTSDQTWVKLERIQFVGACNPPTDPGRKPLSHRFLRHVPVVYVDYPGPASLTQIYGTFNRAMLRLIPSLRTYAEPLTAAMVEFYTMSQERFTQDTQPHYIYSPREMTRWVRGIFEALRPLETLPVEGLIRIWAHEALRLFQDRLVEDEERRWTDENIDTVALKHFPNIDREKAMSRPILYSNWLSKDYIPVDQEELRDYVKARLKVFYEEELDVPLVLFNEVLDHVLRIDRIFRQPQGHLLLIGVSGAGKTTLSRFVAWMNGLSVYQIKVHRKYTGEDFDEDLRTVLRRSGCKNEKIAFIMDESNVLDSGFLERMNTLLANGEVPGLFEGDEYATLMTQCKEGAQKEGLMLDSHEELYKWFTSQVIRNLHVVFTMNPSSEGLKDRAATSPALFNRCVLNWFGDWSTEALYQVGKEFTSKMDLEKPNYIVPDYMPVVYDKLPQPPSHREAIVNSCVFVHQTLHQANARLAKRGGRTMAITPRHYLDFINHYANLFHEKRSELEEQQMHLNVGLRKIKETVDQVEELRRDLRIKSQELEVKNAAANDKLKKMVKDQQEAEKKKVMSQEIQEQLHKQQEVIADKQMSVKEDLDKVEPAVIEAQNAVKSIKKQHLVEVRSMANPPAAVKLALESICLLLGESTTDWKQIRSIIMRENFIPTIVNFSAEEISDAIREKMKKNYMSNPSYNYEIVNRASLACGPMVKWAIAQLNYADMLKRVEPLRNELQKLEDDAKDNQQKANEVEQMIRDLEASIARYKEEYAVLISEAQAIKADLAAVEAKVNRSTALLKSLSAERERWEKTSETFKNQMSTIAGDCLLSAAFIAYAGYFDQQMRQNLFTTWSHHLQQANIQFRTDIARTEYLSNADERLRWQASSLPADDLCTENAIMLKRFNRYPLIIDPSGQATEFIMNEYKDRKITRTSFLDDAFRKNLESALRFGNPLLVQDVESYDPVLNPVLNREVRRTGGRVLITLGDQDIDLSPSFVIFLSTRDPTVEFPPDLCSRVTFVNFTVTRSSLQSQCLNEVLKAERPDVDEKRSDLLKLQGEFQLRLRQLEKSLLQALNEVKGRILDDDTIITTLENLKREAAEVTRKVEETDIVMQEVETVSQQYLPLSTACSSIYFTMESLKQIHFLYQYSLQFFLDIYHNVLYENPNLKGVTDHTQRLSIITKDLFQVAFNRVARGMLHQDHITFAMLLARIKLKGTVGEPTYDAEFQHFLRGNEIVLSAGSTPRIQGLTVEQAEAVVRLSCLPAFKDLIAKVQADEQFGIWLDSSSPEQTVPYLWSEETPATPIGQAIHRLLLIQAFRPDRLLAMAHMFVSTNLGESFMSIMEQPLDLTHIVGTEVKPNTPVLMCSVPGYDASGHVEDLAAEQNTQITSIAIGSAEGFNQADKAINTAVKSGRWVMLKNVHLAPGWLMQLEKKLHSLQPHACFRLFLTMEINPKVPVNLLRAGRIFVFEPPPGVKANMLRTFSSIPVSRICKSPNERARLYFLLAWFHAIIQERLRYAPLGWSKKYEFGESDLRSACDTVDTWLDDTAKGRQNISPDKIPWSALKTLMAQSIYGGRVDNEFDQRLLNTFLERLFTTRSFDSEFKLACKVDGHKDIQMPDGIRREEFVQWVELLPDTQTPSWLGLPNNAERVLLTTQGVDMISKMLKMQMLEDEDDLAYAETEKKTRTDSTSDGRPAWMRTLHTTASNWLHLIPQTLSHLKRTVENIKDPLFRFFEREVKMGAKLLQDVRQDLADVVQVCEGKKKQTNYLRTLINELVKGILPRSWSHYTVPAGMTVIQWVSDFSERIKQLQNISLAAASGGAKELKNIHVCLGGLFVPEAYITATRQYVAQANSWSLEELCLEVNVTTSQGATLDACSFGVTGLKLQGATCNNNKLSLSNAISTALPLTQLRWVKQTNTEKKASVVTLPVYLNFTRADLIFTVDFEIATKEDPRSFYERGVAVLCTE

B1: mouse JIP3 (amino acids 1-240; cloned as 3-240) with C-terminal HaloTag (domain or fragment)
chain: EIQMDEGGGVVVYQDDYCSGSVMSERVSGLAGSIYREFERLIHCYDEEVVKELMPLVVNVLENLDSVLSENQEHEVELELLREDNEQLLTQYEREKALRKQAEEKFIEFEDALEQEKKELQIQVEHYEFQTRQLELKAKNYADQISRLEERESEMKKEYNALHQRHTEMIQTYVEHIERSKMQQVGGSGQTESSLPGRSRKERPTSLNVFPLADGMVRAQMGGKLVPAGDHWHLSDLG
modifications: Halo-JF646 on the HaloTag
In turn, B1 came in with a dwell time of JIP3 on dynein in experiment [1] of 0.42 s.

B2: N-DCX with a C-terminal ybbR-tag (N-DCX-ybbR) (domain or fragment)
chain: MELDFGHFDERDKTSRNMRGSRMNGLPSPTHSAHCSFYRTRTLQALSNEKKAKKVRFYRNGDRYFKGIVYAVSSDRFRSFDALLADLTRSLSDNINLPQGVRYIYTIDGSRKIGSMDELEEGESYVCSSDNFFKKVEYTKNVNPNWSVNVKTSANMKAPQSLASSNSAQARENKDFVRPKLVTIIRSGVKPRKAVRVLLNKKTAHSFEQVLTDITEAIKLETGVVKKLYTLDGKQVTCLHDFFGDDDVFIACGPEKFRYAQDDFSLDENE
modifications: CoA-CF488 or CoA-JF549 on the ybbR-tag
In turn, B2 displayed a velocity of DDJ motor complexes on MTs with 10 nM N-DCX (DDJ only: 0.76 [0.65, 0.89] µm/s) in experiment [2] of 0.54 µm/s. Also, the velocity of MT gliding powered by surface-bound single-headed dynein with 10 nM N-DCX, not significantly changed (without N-DCX: 0.59 [0.56, 0.63] µm/s) in experiment [3] amounted to 0.58 µm/s.

B3: full-length DCX with a C-terminal ybbR-tag (DCX-ybbR) (natural protein)
chain: MELDFGHFDERDKTSRNMRGSRMNGLPSPTHSAHCSFYRTRTLQALSNEKKAKKVRFYRNGDRYFKGIVYAVSSDRFRSFDALLADLTRSLSDNINLPQGVRYIYTIDGSRKIGSMDELEEGESYVCSSDNFFKKVEYTKNVNPNWSVNVKTSANMKAPQSLASSNSAQARENKDFVRPKLVTIIRSGVKPRKAVRVLLNKKTAHSFEQVLTDITEAIKLETGVVKKLYTLDGKQVTCLHDFFGDDDVFIACGPEKFRYAQDDFSLDENECRVMKGNPSATAGPKASPTPQKTSAKSPGPMRRSKSPADSGNDQDANGTSSSQLSTPKSKQSPISTPTSPGSLRKHKDLYLPLSLDDSDSLGDSM
modifications: CoA-CF488 or CoA-JF549 on the ybbR-tag
Regarding B3, the velocity of DDJ motor complexes on MTs with 10 nM DCX (DDJ only: 0.76 [0.65, 0.89] µm/s) in experiment [2] amounted to 0.62 µm/s.
